Results: patent publication US20050113293A1
[ ]: non-standard residue; d: D form. Hyp = O=C(O)[C@@H]1C[C@@H](O)CN1

What was measured:
[1] = molecular target: binding site for [125I]AAP10 on intact CHO cells (AAP receptor); assay: in situ displacement of [125I]AAP10 on intact CHO cells
[2] = molecular target: binding site for [125I]AAP10 on intact CHO cells (AAP receptor); assay: cell-based or functional assay
[3] = molecular target: binding site for [125I]AAP10 in murine heart tissue preparations (AAP receptor) (mouse); assay: displacement of 0.8 nM [125I]AAP10, murine heart membranes
[4] = molecular target: binding site for [125I]AAP10 in murine heart tissue preparations (AAP receptor) (mouse); assay: displacement of 0.8 nM [125I]AAP10, murine heart filtrate

Molecule	IC50 [1]	Inhibition of forskoline stimulated cAMP formation in CHO cells, EC50 [2]	IC50 [3]	IC50 [4]
Ac-D-Tyr(3,5-di-I)-D-Pro-D-Hyp-Gly-D-Ala-Gly-NH2 (Compound 24) (peptide)	65 nM			
Ac-D-Tyr-D-Pro-D-4Hyp-Gly-D-Ala-Gly-NH2 (Compound 2) (peptide)	0.5 nM	6.2 nM	1.2 nM	3.6 nM
{ASAL(mono-iodo)}-P[Hyp]GAG-NH2 [ASAL(mono-iodo)-Pro-Hyp-Gly-Ala-Gly-NH2 (Compound 32)]	0.5 nM			

Now from value to molecule:

IC50 [1]	Inhibition of forskoline stimulated cAMP formation in CHO cells, EC50 [2]	IC50 [3]	IC50 [4]	Molecule
0.8 nM	53 nM		1.2 nM	H-GP[Hyp]GAG-OH (SMILES C[C@H](NC(=O)CNC(=O)[C@@H]1C[C@@H](O)CN1C(=O)[C@@H]1CCCN1C(=O)CN)C(=O)NCC(=O)O) [H-Gly-Pro-Hyp-Gly-Ala-Gly-OH (AAP)]
130 nM	11 nM		1.2 nM	H-GAG[Hyp]PY-NH2 [H-Gly-Ala-Gly-Hyp-Pro-Tyr-NH2 (AAP10)]
